This test has as its target AC domain (catalytic domain) of Bordetella pertussis adenylate cyclase toxin, recombinant (Bordetella pertussis) (UniProt J7QLC0). The experiment in a line: SPR competition: AC domain (10 µM) pre-mixed with CaM and injected over an FHA-coated chip.

On to Calmodulin (from UniProt P0DP23 2-149), for which the percent reduction of AC domain binding to FHA is 75%.
